Data taken from paper PMC7325720 (The Journal of Infectious Diseases, 2019).

Assays:
[1] = biological target: the molecule itself; test: crystal structure
[2] = biological target: T1, MBP-CD74 (CD74 ectodomain fused to maltose binding protein), biotinylated (UniProt P04233 73-296, biotin (EZ-Link Sulfo-NHS-LC-Biotinylation kit)); test: BLI
T1 sequence (looked up): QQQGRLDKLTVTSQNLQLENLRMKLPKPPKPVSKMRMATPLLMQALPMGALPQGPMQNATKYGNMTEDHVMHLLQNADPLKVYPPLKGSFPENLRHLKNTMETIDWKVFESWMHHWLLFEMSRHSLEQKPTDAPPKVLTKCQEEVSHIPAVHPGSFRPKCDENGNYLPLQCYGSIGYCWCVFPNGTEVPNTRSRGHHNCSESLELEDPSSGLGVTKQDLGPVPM

Binder | stoichiometry N [1] | Kd [2]
Entamoeba histolytica macrophage migration inhibitory factor (Eh-MIF) (natural protein) MPHALITLSADITEEIKKEIAHESMKILSEVIGKPISYCATQVVTSVGGFGGKIVKSAFIDIKSISGLKGKQEGLSDRYCKLLEQKAGIEGGNIYLNFTEMTGNNWGYDHSTF | 3 | 11.2 nM
human macrophage migration inhibitory factor (human MIF) (natural protein, UniProt P14174 1-115, looked up) MPMFIVNTNVPRASVPDGFLSELTQQLAQATGKPPQYIAVHVVPDQLMAFGGSSEPCALCSLHSIGKIGGAQNRSYSKLLCGLLAERLRISPDRVYINYYDMNAANVGWNNSTFA | – | 18.2 nM
